B1: Protein VAC14 homolog (Homo sapiens), Q08AM6 (parent)
chain: MNPEKDFAPLTPNIVRALNDKLYEKRKVAALEIEKLVREFVAQNNTVQIKHVIQTLSQEFALSQHPHSRKGGLIGLAACSIALGKDSGLYLKELIEPVLTCFNDADSRLRYYACEALYNIVKVARGAVLPHFNVLFDGLSKLAADPDPNVKSGSELLDRLLKDIVTESNKFDLVSFIPLLRERIYSNNQYARQFIISWILVLESVPDINLLDYLPEILDGLFQILGDNGKEIRKMCEVVLGEFLKEIKKNPSSVKFAEMANILVIHCQTTDDLIQLTAMCWMREFIQLAGRVMLPYSSGILTAVLPCLAYDDRKKSIKEVANVCNQSLMKLVTPEDDELDELRPGQRQAEPTPDDALPKQEGTASGGPDGSCDSSFSSGISVFTAASTERAPVTLHLDGIVQVLNCHLSDTAIGMMTRIAVLKWLYHLYIKTPRKMFRHTDSLFPILLQTLSDESDEVILKDLEVLAEIASSPAGQTDDPGPLDGPDLQASHSELQVPTPGRAGLLNTSGTKGLECSPSTPTMNSYFYKFMINLLKRFSSERKLLEVRGPFIIRQLCLLLNAENIFHSMADILLREEDLKFASTMVHALNTILLTSTELFQLRNQLKDLKTLESQNLFCCLYRSWCHNPVTTVSLCFLTQNYRHAYDLIQKFGDLEVTVDFLAEVDKLVQLIECPIFTYLRLQLLDVKNNPYLIKALYGLLMLLPQSSAFQLLSHRLQCVPNPELLQTEDSLKAAPKSQKADSPSIDYAELLQHFEKVQNKHLEVRHQRSGRGDHLDRRVVL
partner: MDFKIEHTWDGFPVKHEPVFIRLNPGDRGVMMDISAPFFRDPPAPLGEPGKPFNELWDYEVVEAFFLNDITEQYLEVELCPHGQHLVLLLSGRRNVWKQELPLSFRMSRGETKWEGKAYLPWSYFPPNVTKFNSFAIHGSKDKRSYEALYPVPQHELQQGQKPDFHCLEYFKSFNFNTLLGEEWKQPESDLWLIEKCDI
B2: CLK4-associating serine/arginine rich protein (Homo sapiens), Q8N2M8 (parent)
chain: MWHEARKHERKLRGMMVDYKKRAERRREYYEKIKKDPAQFLQVHGRACKVHLDSAVALAAESPVNMMPWQGDTNNMIDRFDVRAHLDHIPDYTPPLLTTISPEQESDERKCNYERYRGLVQNDFAGISEEQCLYQIYIDELYGGLQRPSEDEKKKLAEKKASIGYTYEDSTVAEVEKAAEKPEEEESAAEEESNSDEDEVIPDIDVEVDVDELNQEQVADLNKQATTYGMADGDFVRMLRKDKEEAEAIKHAKALEEEKAMYSGRRSRRQRREFREKRLRGRKISPPSYARRDSPTYDPYKRSPSESSSESRSRSRSPTPGREEKITFITSFGGSDEEAAAAAAAAAASGVTTGKPPAPPQPGGPAPGRNASARRRSSSSSSSSSASRTSSSRSSSRSSSRSRRGGGYYRSGRHARSRSRSWSRSRSRSRRYSRSRSRGRRHSGGGSRDGHRYSRSPARRGGYGPRRRSRSRSHSGDRYRRGGRGLRHHSSSRSRSSWSLSPSRSRSLTRSRSHSPSPSQSRSRSRSRSQSPSPSPAREKLTRPAASPAVGEKLKKTEPAAGKETGAAKPKLTPQEKLKLRMQKALNRQFKADKKAAQEKMIQQEHERQEREDELRAMARKIRMKERERREKEREEWERQYSRQSRSPSPRYSREYSSSRRRSRSRSRSPHYRH
partner: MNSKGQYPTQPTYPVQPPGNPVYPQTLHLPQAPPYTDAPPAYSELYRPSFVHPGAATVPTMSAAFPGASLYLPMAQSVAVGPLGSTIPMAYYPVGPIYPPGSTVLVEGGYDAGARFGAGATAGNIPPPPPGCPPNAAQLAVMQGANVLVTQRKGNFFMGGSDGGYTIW
B3: DNA topoisomerase 3-beta-1 (Homo sapiens), O95985 (parent)
chain: MKTVLMVAEKPSLAQSIAKILSRGSLSSHKGLNGACSVHEYTGTFAGQPVRFKMTSVCGHVMTLDFLGKYNKWDKVDPAELFSQAPTEKKEANPKLNMVKFLQVEGRGCDYIVLWLDCDKEGENICFEVLDAVLPVMNKAHGGEKTVFRARFSSITDTDICNAMACLGEPDHNEALSVDARQELDLRIGCAFTRFQTKYFQGKYGDLDSSLISFGPCQTPTLGFCVERHDKIQSFKPETYWVLQAKVNTDKDRSLLLDWDRVRVFDREIAQMFLNMTKLEKEAQVEATSRKEKAKQRPLALNTVEMLRVASSSLGMGPQHAMQTAERLYTQGYISYPRTETTHYPENFDLKGSLRQQANHPYWADTVKRLLAEGINRPRKGHDAGDHPPITPMKSATEAELGGDAWRLYEYITRHFIATVSHDCKYLQSTISFRIGPELFTCSGKTVLSPGFTEVMPWQSVPLEESLPTCQRGDAFPVGEVKMLEKQTNPPDYLTEAELITLMEKHGIGTDASIPVHINNICQRNYVTVESGRRLKPTNLGIVLVHGYYKIDAELVLPTIRSAVEKQLNLIAQGKADYRQVLGHTLDVFKRKFHYFVDSIAGMDELMEVSFSPLAATGKPLSRCGKCHRFMKYIQAKPSRLHCSHCDETYTLPQNGTIKLYKELRCPLDDFELVLWSSGSRGKSYPLCPYCYNHPPFRDMKKGMGCNECTHPSCQHSLSMLGIGQCVECESGVLVLDPTSGPKWKVACNKCNVVAHCFENAHRVRVSADTCSVCEAALLDVDFNKAKSPLPGDETQHMGCVFCDPVFQELVELKHAASCHPMHRGGPGRRQGRGRGRARRPPGKPNPRRPKDKMSALAAYFV
B4: Ribosome assembly protein METTL17, mitochondrial (Homo sapiens), Q9H7H0 (parent)
chain: MAAALKCLLTLGRWCPGLGVAPQARALAALVPGVTQVDNKSGFLQKRPHRQHPGILKLPHVRLPQALANGAQLLLLGSAGPTMENQVQTLTSYLWSRHLPVEPEELQRRARHLEKKFLENPDLSQTEEKLRGAVLHALRKTTYHWQELSYTEGLSLVYMAARLDGGFAAVSRAFHEIRARNPAFQPQTLMDFGSGTGSVTWAAHSIWGQSLREYMCVDRSAAMLVLAEKLLKGGSESGEPYIPGVFFRQFLPVSPKVQFDVVVSAFSLSELPSKADRTEVVQTLWRKTGHFLVLVENGTKAGHSLLMDARDLVLKGKEKSPLDPRPGFVFAPCPHELPCPQLTNLACSFSQAYHPIPFSWNKKPKEEKFSMVILARGSPEEAHRWPRITQPVLKRPRHVHCHLCCPDGHMQHAVLTARRHGRDLYRCARVSSWGDLLPVLTPSAFPPSTAQDPSES
partner: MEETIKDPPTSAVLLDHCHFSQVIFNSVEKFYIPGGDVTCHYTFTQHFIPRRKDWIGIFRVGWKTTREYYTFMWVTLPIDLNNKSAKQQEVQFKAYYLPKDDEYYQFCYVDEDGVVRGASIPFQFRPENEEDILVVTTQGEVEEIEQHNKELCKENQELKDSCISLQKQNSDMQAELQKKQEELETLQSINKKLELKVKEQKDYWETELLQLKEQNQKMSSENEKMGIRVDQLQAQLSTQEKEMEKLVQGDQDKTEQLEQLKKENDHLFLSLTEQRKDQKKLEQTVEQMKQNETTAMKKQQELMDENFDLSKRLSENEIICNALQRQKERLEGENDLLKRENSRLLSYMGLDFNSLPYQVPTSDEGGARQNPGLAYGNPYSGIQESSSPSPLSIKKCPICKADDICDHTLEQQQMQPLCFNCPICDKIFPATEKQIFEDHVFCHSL
B5: Genetic suppressor element 1 (Homo sapiens), Q14687 (parent)
chain: MKGMSHEPKSPSLGMLSTATRTTATVNPLTPSPLNGALVPSGSPATSSALSAQAAPSSSFAAALRKLAKQAEEPRGSSLSSESSPVSSPATNHSSPASTPKRVPMGPIIVPPGGHSVPSTPPVVTIAPTKTVNGVWRSESRQDAGSRSSSGGRERLIVEPPLPQEKAGGPAIPSHLLSTPYPFGLSPSSVVQDSRFPPLNLQRPVHHVVPPSTVTEDYLRSFRPYHTTDDLRMSSLPPLGLDPATAAAYYHPSYLAPHPFPHPAFRMDDSYCLSALRSPFYPIPTPGSLPPLHPSAMHLHLSGVRYPPELSHSSLAALHSERMSGLSAERLQMDEELRREREREREREREREADREREKEREREREKEREQEKEREREKERERELERQREQRAREKELLAAKALEPSFLPVAELHGLRGHATEERGKPSEQLTPTRAEKLKDAGLQAPKPVQHPLHPVPTPHHTVPSLISNHGIFSLPSSSAATALLIQRTNEEEKWLARQRRLRQEKEDRQSQVSEFRQQVLEQHLDMGRPPVPAEAEHRPESTTRPGPNRHEPGGRDPPQHFGGPPPLISPKPQLHAAPTALWNPVSLMDNTLETRRAESHSLHSHPAAFEPSRQAAVPLVKVERVFCPEKAEEGPRKREPAPLDKYQPPPPPPREGGSLEHQPFLPGPGPFLAELEKSTQTILGQQRASLPQAATFGELSGPLKPGSPYRPPVPRAPDPAYIYDEFLQQRRRLVSKLDLEERRRREAQEKGYYYDLDDSYDESDEEEVRAHLRCVAEQPPLKLDTSSEKLEFLQLFGLTTQQQKEELVAQKRRKRRRMLRERSPSPPTIQSKRQTPSPRLALSTRYSPDEMNNSPNFEEKKKFLTIFNLTHISAEKRKDKERLVEMLRAMKQKALSAAVADSLTNSPRDSPAVSLSEPATQQASLDVEKPVGVAASLSDIPKAAEPGKLEQVRPQELSRVQELAPASGEKARLSEAPGGKKSLSMLHYIRGAAPKDIPVPLSHSTNGKSKPWEPFVAEEFAHQFHESVLQSTQKALQKHKGSVAVLSAEQNHKVDTSVHYNIPELQSSSRAPPPQHNGQQEPPTARKGPPTQELDRDSEEEEEEDDEDGEDEEEVPKRKWQGIEAVFEAYQEHIEEQNLERQVLQTQCRRLEARHYSLSLTAEQLSHSVAELRSQKQKMVSERERLQAELDHLRKCLALPAMHWPRGYLKGYPR
partner: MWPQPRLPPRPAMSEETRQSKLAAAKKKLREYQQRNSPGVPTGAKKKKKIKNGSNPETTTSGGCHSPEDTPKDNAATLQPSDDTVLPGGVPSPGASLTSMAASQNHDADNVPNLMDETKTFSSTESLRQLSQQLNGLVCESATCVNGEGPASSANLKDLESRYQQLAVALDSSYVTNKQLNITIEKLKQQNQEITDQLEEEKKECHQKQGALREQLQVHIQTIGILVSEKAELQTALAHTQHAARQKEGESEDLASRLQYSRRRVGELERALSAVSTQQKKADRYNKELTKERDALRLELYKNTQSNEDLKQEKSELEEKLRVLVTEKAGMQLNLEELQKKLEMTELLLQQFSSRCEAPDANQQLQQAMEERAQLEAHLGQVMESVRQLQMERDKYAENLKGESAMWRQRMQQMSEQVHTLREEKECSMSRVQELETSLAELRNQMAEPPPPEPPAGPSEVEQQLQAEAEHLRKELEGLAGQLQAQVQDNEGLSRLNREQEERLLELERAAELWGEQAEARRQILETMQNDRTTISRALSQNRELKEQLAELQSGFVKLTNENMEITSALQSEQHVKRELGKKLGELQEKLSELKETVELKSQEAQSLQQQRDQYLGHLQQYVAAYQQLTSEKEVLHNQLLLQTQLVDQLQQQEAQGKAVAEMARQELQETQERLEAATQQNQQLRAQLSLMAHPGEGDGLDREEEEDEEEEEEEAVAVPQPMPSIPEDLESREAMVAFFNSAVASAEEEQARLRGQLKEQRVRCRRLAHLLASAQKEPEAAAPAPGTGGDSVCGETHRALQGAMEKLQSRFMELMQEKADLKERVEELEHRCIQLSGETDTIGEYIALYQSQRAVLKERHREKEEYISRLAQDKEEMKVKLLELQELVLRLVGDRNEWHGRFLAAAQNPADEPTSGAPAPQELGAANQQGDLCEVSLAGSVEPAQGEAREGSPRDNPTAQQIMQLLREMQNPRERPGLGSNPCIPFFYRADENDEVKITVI

Variants of: B1
Conditions: with cd033_human C4orf33, Q8N1A6

effect of a mutation on the interaction | Variant
with no effect | A127S

Variants of: B2
Conditions: with dazp2_human DAZAP2, Q15038

effect of a mutation on the interaction | Variant
with no effect | I163V

Variants of: B3
Conditions: with spre2_human SPRED2, Q7Z698
Sequence of spre2_human SPRED2, Q7Z698 (Q7Z698 whole entry): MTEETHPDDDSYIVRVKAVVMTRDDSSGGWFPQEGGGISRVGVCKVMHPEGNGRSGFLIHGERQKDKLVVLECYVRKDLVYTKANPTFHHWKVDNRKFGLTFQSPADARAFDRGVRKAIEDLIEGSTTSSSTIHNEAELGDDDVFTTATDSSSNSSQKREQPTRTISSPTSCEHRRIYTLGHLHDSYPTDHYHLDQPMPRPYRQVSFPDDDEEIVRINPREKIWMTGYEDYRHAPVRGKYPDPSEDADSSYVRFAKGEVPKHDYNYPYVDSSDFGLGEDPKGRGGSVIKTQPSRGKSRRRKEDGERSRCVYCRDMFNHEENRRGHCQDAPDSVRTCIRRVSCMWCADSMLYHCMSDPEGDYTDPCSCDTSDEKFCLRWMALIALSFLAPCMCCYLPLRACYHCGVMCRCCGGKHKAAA

effect of a mutation on the interaction | Variant
disrupting interaction strength | C666R

Variants of: B4
Conditions: with caco2_human CALCOCO2, Q13137

effect of a mutation on the interaction | Variant
disrupting interaction strength | R212H

Variants of: B5
Conditions: with goga2_human GOLGA2, Q08379

effect of a mutation on the interaction | Variant
with no effect | R503Q
